Data published in patent publication US20040142381A1, “Methods for designing IGF1 receptor modulators for therapeutics” (priority 2002, published 2004).

T1: synthetic peptide KKKSPGEYVNIEFG, based on the IRS-1 phosphorylation site Tyr 895
T1 sequence: KKKSPGEYVNIEFG

T2: synthetic peptide substrate KKEEEEYMMMMG
T2 sequence: KKEEEEYMMMMG


What was measured:
[1] = system: T1, synthetic peptide KKKSPGEYVNIEFG, based on the IRS-1 phosphorylation site Tyr 895
[2] = system: T2, synthetic peptide substrate KKEEEEYMMMMG
[3] = target: synthetic peptide substrate …; test: cell-based or functional assay
[4] = substrate: CC[C@H](C)[C@H](NC(=O)[C@H](CC(N)=O)NC(=O)[C@@H](NC(=O)[C@H](Cc1ccc(O)cc1)NC(=O)[C@H](CCC(=O)O)NC(=O)CNC(=O)[C@@H]1CCCN1C(=O)[C@H](CO)NC(=O)[C@H](CCCCN)NC(=O)[C@H](CCCCN)NC(=O)[C@@H](N)CCCCN)C(C)C)C(=O)N[C@@H](CCC(=O)O)C(=O)N[C@@H](Cc1ccccc1)C(=O)NCC(=O)O; test: Km of IRS-1 Tyr 895-derived peptide substrate for IGF1RK; format: biochemical, human; details: other: peptide as substrate of IGF1RK

| Molecule | Peptide Km [2] | other results |
| --- | --- | --- |
| IGF1RK (phosphorylation state not stated) |  | Km [1]: The Km for this peptide was determined to be 128 µM for IGF1RK |
| IGF1RK, bis-phosphorylated form (2P) | 0.13 mM |  |
| IGF1RK, mono-phosphorylated form (1P) | 0.62 mM |  |
| IGF1RK, tris-phosphorylated, activated form (3P) | 0.12 mM |  |
| IGF1RK, tris-phosphorylated, activated form (3P) (enzyme) |  | Km for peptide ([γ-32P]ATP and phosphocellulose binding assay) [3]: 150 µM |
| IGF1RK, unphosphorylated form (0P): tyrosine kinase domain of the human insulin-like growth factor 1 receptor, residues 956-1,256 | 1.3 mM | induction time of autophosphorylation at varying enzyme concentration (continuous spectrophotometric assay): the phosphorylation reaction was concentration dependent |
| IGF1RK (Homo sapiens) (protein, encoding residues 956-1,256 of the human insulin-like growth factor 1 receptor (IGF1RK); made in house; host or cells: Spodoptera frugiperda (Sf9) cells, baculovirus) VYVPDEWEVAREKITMSRELGQGSFGMVYEGVAKGVVKDEPETRVAIKTVNEAASMRERIEFLNEASVMKEFNCHHVVRLLGVVSQGQPTLVIMELMTRGDLKSYLRSLRPEMENNPVLAPPSLSKMIQMAGEIADGMAYLNANKFVHRDLAARNCMVAEDFTVKIGDFGMTRDIYETDYYRKGGKGLLPVRWMSPESLKDGVFTTYSDVWSFGVVLWEIATLAEQPYQGLSNEQVLRFVMEGGLLDKPDNCPDMLFELMRMCWQYNPKMRPSFLEIISSIKEEMEPGFREVSFYYSEENK |  | Km [4]: 128 µM |
